Results as given in the Human Domainome abundance scans (Beltran et al. 2025).

B1: Zinc finger homeobox protein 3, residues 2643 to 2698; numbered along this chain, Q15911 (parent)
chain: RLRTTITPEQLEILYQKYLLDSNPTRKMLDHIAHEVGLKKRVVQVWFQNTRARERK

Variants of: B1
Assay: abundance fitness (aPCA) (normalised: wild type 0, dead -1); higher = more abundant; growth selection in yeast, the domain comes from the species named
Conditions: Homo sapiens

Abundance fitness of substitutions, site by site:
V36: F -0.568; E -1.11; G -0.732; H -0.964; D -0.853
V43: D -0.867; P -0.739
K39: H -0.392; W -0.77; F -0.929
L29: C -0.056; H -0.766; Q -0.254; I 0.167; P -0.8; F 0.069; N -0.724; S -0.488
T50: L -0.177; C -0.078; E 0.342; R -0.037
E35: H -0.274; N -1.01; L -0.205; S -0.224; T 0.063
Q10: S -0.48; F -0.959; G -0.854; K -0.432; R -0.755; Y -0.792; V -0.321; P -0.717
N49: Q -0.168; G -0.234; E 0.406; V -0.229; D 0.172; R -0.267; A -0.2; F -0.531; M -0.331
L38: W -0.746; V -0.163; G -0.972; M -0.009; E -0.869; K -0.712; N -1.02
R3: S 0.43; A 0.493; Q 0.353; M 0.317; E 0.366; I 0.19; L 0.186
Q16: W -0.615; S -0.213; G -0.113; Y -0.436; A 0.052; H -0.267
V45: R -0.561; M -0.005; T -0.24; I 0.158; C -0.329; Y -0.263; Q -0.016; P -0.764; L 0.122
I6: C -0.022; P -0.182; V -0.022; Q -0.705; S -0.648; A -0.298
S22: D 0.075; L -0.643; G -0.034; Q 0.037; R -0.526; I -0.589
D30: G -0.073; F -0.446; H 0.007; R -0.124; E -0.29; I -0.071; V -0.223; P -0.543; A -0.046
K17: Y -0.096; L -0.303; W -0.056
T4: A -0.193; N -0.042; H -0.337; F -0.378; E 0.439; D 0.154; M 0.068
L11: R 0.049; H 0.028; T -0.117; G -0.02; W -0.11; E 0.026; I -0.224; V -0.021; N 0.305
L20: E -0.079; I -0.056; H -0.286; D -0.226; C -0.022; R -0.331; N -0.27; W -0.227
K27: F -0.293; P 0.16; A 0.018; C -0.342; N -0.246; R -0.444; Y -0.241
N23: P -0.965; V -0.37; W -0.155
Y15: Q 0.244; M -0.049; K 0.051; F -0.444; W 0.072
L2: G 0.136; T 0.25; R -0.262; A -0.009; D 0.655; N 0.232
R26: N 0.339; F 0.029; G 0.386; I 0.323
P8: L 0.991; E -0.259; T -0.116; Y 0.116; I 0.993; Q -0.401; A 0.388
H34: M -0.092; I -0.632; L -0.225; Q -0.017; P -0.739; D 0.035; F -0.114
